This test concerns the target ErbB3 (human) (UniProt P21860). Briefly: cell-based or functional assay.

This note sets out measurements from patent publication US20170101480A1.

A value given as a limit tells only on which side of the number the result lay.

B1: Seribantumab (antibody, INN chains, looked up, V domains shown)
VH: EVQLLESGGGLVQPGGSLRLSCAASGFTFSHYVMAWVRQAPGKGLEWVSSISSSGGWTLYADSVKGRFTISRDNSKNTLYLQMNSLRAEDTAVYYCTRGLKMATIFDYWGQGTLVTVSS
VL: QSALTQPASVSGSPGQSITISCTGTSSDVGSYNVVSWYQQHPGKAPKLIIYEVSQRPSGVSNRFSGSKSGNTASLTISGLQTEDEADYYCCSYAGSSIFVIFGGGTKVTVLG
B1 registered an inhibition of HRG-induced cell growth (CTG assay), OVCAR8-GFP cells of 49%; an inhibition of HRG-induced cell growth (CTG assay), OVCAR-8-JMaCYT1 cells (ErbB4 overexpressing) of under 20%; an inhibition of HRG-induced cell growth (CTG assay), OVCAR-8-JMaCYT2 cells (ErbB4 overexpressing) of under 20%; an inhibition of HRG-induced cell growth (CTG assay), OVCAR-8 high ErbB4 expression clone #5 of 8%. Also, the inhibition of HRG-induced cell growth (CTG assay), OVCAR-8 low ErbB4 expression clone #4 stood at 45%; the inhibition of HRG-induced cell growth (CTG assay), OVCAR-8 medium ErbB4 expression clone #9 came to 25%; the inhibition of HRG-induced cell proliferation (CTG assay), OVCAR-8 GFP-expressing control cells, 1.25 uM seribantumab turned out to be 40.8%; the inhibition of HRG-induced cell proliferation (CTG assay), OVCAR-8 parental cells, 1.25 uM seribantumab came out at 53.7%. The same molecule registered an inhibition of HRG-stimulated cell proliferation (CTG assay), A549 cells, 1.25 uM seribantumab, 10 nM HRG of 70% and an inhibition of HRG-stimulated cell proliferation (CTG assay), OVCAR-8 cells, 1.25 uM seribantumab, 10 nM HRG of 41%.
